Data taken from CN116178530A.

Molecular target: SARS-CoV-2活病毒的刺突蛋白 (SARS-CoV-2) (UniProt P0DTC2)
Assay: cell-based or functional assay

CB6 (antibody) was tested, and the 活病毒中和 ND50 (CPE抑制, Vero E6细胞) was 0.256 µg/mL.
